Measured values published in patent US20130184211A1 (NEW YORK UNIVERSITY, published 2013).

T1: 1:1 binary complex of the ectodomains of FGFR1c and Klotho (human; murine, UniProt O35082 35-982)
T1 construct: range 35-982; also called FGFR1c-Klotho complex; binary FGFR1c-Klotho complex; not shown: C-terminal FLAG tag
T1 sequence 1: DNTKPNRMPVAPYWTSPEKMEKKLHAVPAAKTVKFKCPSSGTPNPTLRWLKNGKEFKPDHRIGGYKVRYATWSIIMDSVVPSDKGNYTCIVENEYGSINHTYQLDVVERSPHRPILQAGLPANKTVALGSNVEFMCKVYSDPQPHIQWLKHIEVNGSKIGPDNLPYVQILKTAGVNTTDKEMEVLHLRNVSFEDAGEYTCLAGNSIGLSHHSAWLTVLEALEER
T1 sequence 2: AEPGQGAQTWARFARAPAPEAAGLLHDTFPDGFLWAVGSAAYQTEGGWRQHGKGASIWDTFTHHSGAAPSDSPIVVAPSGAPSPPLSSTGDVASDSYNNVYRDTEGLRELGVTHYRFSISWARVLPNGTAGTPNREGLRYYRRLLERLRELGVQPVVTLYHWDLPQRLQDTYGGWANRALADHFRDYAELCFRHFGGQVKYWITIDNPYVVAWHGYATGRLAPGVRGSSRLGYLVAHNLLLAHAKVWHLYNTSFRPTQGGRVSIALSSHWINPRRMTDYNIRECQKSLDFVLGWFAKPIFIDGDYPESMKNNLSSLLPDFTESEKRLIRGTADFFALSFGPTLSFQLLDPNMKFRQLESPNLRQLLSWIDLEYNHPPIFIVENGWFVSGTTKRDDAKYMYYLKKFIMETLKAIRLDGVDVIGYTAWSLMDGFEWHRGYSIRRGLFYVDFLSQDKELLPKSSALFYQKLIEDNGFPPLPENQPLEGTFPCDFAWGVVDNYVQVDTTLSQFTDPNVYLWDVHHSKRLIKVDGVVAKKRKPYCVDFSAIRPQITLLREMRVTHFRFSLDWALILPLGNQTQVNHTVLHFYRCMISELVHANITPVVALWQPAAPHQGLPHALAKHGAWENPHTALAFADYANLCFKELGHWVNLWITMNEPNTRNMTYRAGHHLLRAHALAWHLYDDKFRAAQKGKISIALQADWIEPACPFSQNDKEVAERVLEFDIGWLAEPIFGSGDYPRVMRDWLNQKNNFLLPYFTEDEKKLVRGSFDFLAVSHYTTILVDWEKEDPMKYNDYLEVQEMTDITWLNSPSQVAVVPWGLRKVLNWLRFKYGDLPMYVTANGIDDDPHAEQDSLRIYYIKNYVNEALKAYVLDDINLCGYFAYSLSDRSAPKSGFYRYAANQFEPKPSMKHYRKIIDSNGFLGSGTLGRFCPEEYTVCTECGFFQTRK

T2: ectodomain of murine Klotho (A35 to K982) with C-terminal FLAG tag (murine, UniProt O35082 35-982)
T2 construct: range 35-982; Purified from culture media of HEK293 cells; also called Klotho ectodomain; not shown: C-terminal FLAG tag
T2 sequence (looked up): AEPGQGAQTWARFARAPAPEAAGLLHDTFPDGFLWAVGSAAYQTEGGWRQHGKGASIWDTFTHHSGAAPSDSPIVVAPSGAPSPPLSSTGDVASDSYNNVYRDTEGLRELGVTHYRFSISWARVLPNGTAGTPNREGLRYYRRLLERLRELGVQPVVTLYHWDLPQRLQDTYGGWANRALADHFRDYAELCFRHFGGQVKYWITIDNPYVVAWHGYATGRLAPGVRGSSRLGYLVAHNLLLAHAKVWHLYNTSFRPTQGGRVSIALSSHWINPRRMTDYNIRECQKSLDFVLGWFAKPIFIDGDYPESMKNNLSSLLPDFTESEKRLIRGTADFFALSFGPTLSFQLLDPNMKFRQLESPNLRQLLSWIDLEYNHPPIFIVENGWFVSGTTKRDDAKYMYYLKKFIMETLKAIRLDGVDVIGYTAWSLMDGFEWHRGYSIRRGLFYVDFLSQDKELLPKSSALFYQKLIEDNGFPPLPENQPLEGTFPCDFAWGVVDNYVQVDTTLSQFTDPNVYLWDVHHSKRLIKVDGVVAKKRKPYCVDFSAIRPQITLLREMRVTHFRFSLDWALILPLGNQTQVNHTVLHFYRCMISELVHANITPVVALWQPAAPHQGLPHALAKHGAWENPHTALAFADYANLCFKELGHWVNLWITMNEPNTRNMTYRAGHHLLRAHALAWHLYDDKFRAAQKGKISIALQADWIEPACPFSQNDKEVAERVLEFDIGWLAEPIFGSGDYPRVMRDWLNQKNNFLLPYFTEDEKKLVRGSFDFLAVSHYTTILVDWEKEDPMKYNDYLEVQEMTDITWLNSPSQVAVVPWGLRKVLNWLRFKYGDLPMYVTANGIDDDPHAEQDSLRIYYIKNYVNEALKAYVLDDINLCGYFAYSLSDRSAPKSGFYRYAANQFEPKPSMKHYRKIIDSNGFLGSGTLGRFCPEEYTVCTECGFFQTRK


Tests used:
[1] = target: T1, 1:1 binary complex of the ectodomains …; assay: SPR competition dose-response: FGF23^28-251 mixed with a fixed concentration of FGFR1c-Klotho, immobilized FGF23^28-251 as competitor; averaged data of two to three experiments
From the text: For each protein injection over a Klotho chip, the nonspecific responses from the β-glucuronidase control flow channel were subtracted from the responses recorded for the Klotho flow channel. Similarly, for each protein injection over a FGF chip, the nonspecific responses from the FHF1B control flow channel were subtracted from the responses recorded for the FGF flow channel. Each set of experiments was repeated at least three times, and for each experiment, at least two protein injections were repeated two to five times to monitor chip performance and to verify reproducibility of the binding responses.
To examine whether the C-terminal tail of FGF23 can compete with full-length FGF23 for binding to the binary FGFR1c-Klotho complex, two assay formats were employed. In one assay, FGF23²⁸⁻²⁵¹ was immobilized on a chip (˜16-53 fmole/mm² of flow channel). Increasing concentrations of FGF23¹⁸⁰⁻²⁵¹ (0-400 nM) were mixed with a fixed concentration of 1:1 complex of the ectodomains of FGFR1c and Klotho (10 nM, 15 nM and 20 nM, respectively) in HBS-EP buffer, and the mixtures were passed over the chip. As a control, competition of FGF23 in solution with immobilized FGF23 for binding to the binary FGFR1c-Klotho complex was studied. […]

[2] = target: T1, 1:1 binary complex of the ectodomains …; assay: SPR competition; competitor FGF23^28-251 immobilized, fixed FGFR1c-Klotho complex
Experimental: Increasing concentrations of FGF23²⁸⁻²⁵¹ (0-50 nM) were mixed with a fixed concentration of 1:1 complex of the ectodomains of FGFR1c and Klotho (15 nM and 20 nM, respectively) in HBS-EP buffer, and the mixtures were passed over the FGF23 chip. In the other—reverse—assay, FGF23¹⁸⁰⁻²⁵¹ was immobilized on a chip (˜48.4 fmole/mm² of flow channel). Increasing concentrations of FGF23²⁸⁻²⁵¹ (0-50 nM) were mixed with a fixed concentration of 1:1 complex of the ectodomains of FGFR1c and Klotho (20 nM) in HBS-EP buffer, and the mixtures were passed over the chip. As a control, competition of FGF23 C-terminal tail peptide in solution with immobilized FGF23 C-terminal tail peptide for binding to the binary FGFR1c-Klotho complex was studied. Increasing concentrations of FGF23¹⁸⁰⁻²⁵¹ (0-400 nM) were mixed with a fixed concentration of 1:1 complex of the ectodomains of FGFR1c and Klotho (20 nM) in HBS-EP buffer, and the mixtures were passed over the FGF23¹⁸⁰⁻²⁵¹ chip.
To fully nail down that the C-terminal tail of FGF23 mediates FGF23 binding to the binary FGFR1c-Klotho complex, a fixed concentration of FGFR1c-Klotho was mixed with increasing concentrations of FGF23¹⁸⁰⁻²⁵¹, and the mixtures were passed over the FGF23 chip. Mixtures of FGF23²⁸⁻²⁵¹ with FGFR1c-Klotho were used as a control. […] Similar results were obtained using the “reverse” SPR assay format, where FGF23¹⁸⁰⁻²⁵¹ was immobilized on a chip and mixtures of a fixed concentration of FGFR1c-Klotho complex with increasing concentrations of FGF23²⁸⁻²⁵¹ were passed over the chip (FIG. 3E). Mixtures of FGF23¹⁸⁰⁻²⁵¹ with FGFR1c-Klotho were used as a control (FIG. 3F). To verify the specificity of the interaction between the FGF23 C-terminal tail and the FGFR1c-Klotho complex, the C-terminal tail peptide of FGF21 and FGFR1c-Klotho were mixed at molar ratios of 6:1 and 10:1, and the mixtures were injected over a FGF23 chip.

[3] = target: T2, ectodomain of murine Klotho (A35 to …); assay: SPR; Klotho ectodomain immobilized, increasing FGFR1c ectodomain injected; fitted saturation binding curve
Experimental: Proteins were immobilized by amine coupling on flow channels of research grade CMS chips (Biacore AB). Proteins were injected over a CMS chip at a flow rate of 50 μl min⁻¹, and at the end of each protein injection (180 s), HBS-EP buffer (50 μl min⁻¹) was flowed over the chip to monitor dissociation for 180 s. The chip surface was then regenerated by injecting 50 μl of 2.0 M NaCl in 10 mM sodium acetate, pH 4.5. […] For each protein injection over a Klotho chip, the nonspecific responses from the β-glucuronidase control flow channel were subtracted from the responses recorded for the Klotho flow channel. Similarly, for each protein injection over a FGF chip, the nonspecific responses from the FHF1B control flow channel were subtracted from the responses recorded for the FGF flow channel. Each set of experiments was repeated at least three times, and for each experiment, at least two protein injections were repeated two to five times to monitor chip performance and to verify reproducibility of the binding responses.
The size-exclusion data showing that Klotho and FGFR1c ectodomains form a stable binary complex (FIG. 1B) indicate that Klotho must harbor a high affinity binding site for FGFR1c. To further confirm this, surface plasmon resonance (SPR) spectroscopy was used to determine the dissociation constant of the FGFR1c-Klotho interaction. […]

IC50 (read off the curve) [1] [µM] | molar amount relative to FGFR1c-Klotho complex at 50% inhibition [2] [fold molar amount] | Kd [3] [µM] | Binder
~0.02 | < 1 |  | human FGF23 (A28 to I251), FGF23^28-251, with R176Q and R179Q (ligand, also called full-length FGF23) ASPLLGSSWGGLIHLYTATARNSYHLQIHKNGHVDGAPHQTIYSALMIRSEDAGFVVITGVMSRRYLCMDFRGNIFGSHYFDPENCRFQHQTLENGYDVYHSPQYHFLVSLGRAKRAFLPGMNPPPYSQFLSRRNEIPLIHFNTPIPRQHTQSAEDDSERDPLNVLKPRARMTPAPASCSQELPSAEDNSPMASDPLGVVRGGRVNTHAGGTGPEGCRPFAKFI
 |  | 0.072 | ligand-binding domain of human FGFR1c (D142 to R365) (receptor, Expressed in E. coli; also called FGFR1c ectodomain) DNTKPNRMPVAPYWTSPEKMEKKLHAVPAAKTVKFKCPSSGTPNPTLRWLKNGKEFKPDHRIGGYKVRYATWSIIMDSVVPSDKGNYTCIVENEYGSINHTYQLDVVERSPHRPILQAGLPANKTVALGSNVEFMCKVYSDPQPHIQWLKHIEVNGSKIGPDNLPYVQILKTAGVNTTDKEMEVLHLRNVSFEDAGEYTCLAGNSIGLSHHSAWLTVLEALEER
